Results from PMC6242908.

Biological target: MBP-KRIPP11-His6 (Trypanosoma brucei) (UniProt Q57YK5)
Assay: fluorescence anisotropy
Settings: FA: 20 mM Tris-HCl pH 7.5, 150 mM KCl, 5 mM MgCl2, 1 mM DTT, 20 nM RNA/DNA, 25 C, EMSA: same buffer with BSA and RNAsin, 150 nM RNA/DNA, 2% tris-glycine …

Sequence	Kd [µM]	Kd (DNA) [µM]
GGUGGUGGUGGU [(GGU)4]	6.55	–
GGGGGGGGGGGG [G12 RNA (native)]	0.66	–
GGGGCCUUUAAA [G4C2U3A3]	2.21	–
GGGGGG [G6 RNA]	1.07	–
GGGG [G4 RNA]	3.42	–
GGGGGGGGG [G9 RNA]	1.87	–
GGGGGGGGGGGG [dG12]	–	1.88
GGGGGGCCUUAA [G6C2U2A2]	0.93	–
